Molecular target: rpgr_mouse Rpgr (UniProt Q9R0X5)
Sequence (Q9R0X5 whole entry): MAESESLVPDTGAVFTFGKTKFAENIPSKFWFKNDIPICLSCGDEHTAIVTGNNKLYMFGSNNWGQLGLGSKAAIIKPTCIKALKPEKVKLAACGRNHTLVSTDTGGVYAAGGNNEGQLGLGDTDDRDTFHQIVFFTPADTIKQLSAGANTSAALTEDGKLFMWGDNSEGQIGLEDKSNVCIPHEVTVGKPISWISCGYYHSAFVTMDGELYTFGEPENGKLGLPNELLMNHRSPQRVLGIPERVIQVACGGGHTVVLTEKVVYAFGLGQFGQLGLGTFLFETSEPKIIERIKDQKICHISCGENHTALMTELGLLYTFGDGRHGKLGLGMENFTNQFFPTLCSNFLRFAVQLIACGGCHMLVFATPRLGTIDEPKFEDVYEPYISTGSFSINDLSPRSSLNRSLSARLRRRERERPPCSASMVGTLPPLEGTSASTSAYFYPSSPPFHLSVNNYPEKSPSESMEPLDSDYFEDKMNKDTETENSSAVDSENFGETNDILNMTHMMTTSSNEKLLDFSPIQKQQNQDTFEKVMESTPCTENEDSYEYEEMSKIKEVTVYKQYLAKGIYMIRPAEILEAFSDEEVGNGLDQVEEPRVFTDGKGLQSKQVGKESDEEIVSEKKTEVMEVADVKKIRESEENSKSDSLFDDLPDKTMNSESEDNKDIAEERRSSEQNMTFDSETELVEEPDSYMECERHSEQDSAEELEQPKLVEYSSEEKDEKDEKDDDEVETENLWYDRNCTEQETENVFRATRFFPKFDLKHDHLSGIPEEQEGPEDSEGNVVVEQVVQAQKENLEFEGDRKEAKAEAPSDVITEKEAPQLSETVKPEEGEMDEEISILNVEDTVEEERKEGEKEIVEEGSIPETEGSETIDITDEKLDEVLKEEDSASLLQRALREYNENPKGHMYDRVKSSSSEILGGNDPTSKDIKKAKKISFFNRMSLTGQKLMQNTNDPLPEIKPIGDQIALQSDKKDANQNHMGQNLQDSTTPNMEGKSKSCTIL

Sequence of Protein fantom (Homo sapiens), Q68CZ1 A229T (Q68CZ1 whole entry A229T): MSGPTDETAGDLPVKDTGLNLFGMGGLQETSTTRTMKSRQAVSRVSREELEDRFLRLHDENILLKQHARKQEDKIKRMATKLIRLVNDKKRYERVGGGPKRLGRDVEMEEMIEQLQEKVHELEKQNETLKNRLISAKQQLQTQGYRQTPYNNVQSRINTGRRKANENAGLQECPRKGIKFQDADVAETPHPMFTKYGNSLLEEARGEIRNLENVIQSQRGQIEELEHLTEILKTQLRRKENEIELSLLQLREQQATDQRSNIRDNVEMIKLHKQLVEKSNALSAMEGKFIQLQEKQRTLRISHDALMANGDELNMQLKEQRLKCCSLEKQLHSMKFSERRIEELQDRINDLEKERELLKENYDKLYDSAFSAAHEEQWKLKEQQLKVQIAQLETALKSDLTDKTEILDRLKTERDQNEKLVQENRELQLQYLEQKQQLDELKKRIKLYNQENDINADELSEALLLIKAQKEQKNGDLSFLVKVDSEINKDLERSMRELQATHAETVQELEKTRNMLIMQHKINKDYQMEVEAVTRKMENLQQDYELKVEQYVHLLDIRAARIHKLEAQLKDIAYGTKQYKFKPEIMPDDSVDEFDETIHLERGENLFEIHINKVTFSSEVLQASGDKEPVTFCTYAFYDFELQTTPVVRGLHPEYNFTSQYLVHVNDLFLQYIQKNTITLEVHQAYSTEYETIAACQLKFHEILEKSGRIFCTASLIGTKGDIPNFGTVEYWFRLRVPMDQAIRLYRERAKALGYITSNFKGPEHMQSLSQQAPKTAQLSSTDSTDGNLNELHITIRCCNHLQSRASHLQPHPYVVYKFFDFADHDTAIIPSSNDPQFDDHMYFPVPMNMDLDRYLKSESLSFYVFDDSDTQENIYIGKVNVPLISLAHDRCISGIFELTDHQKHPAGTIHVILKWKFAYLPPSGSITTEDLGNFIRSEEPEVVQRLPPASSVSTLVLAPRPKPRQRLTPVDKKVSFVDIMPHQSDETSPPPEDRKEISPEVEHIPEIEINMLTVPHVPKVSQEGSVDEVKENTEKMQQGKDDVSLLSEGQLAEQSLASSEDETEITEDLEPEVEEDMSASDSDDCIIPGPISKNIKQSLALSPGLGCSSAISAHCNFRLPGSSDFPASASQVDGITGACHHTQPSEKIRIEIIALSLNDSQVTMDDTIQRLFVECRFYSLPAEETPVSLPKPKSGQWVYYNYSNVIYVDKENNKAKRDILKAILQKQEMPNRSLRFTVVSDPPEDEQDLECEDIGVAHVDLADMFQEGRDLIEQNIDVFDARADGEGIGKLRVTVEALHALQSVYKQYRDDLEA

Substance	effect of a mutation on the interaction
Protein fantom (Homo sapiens), Q68CZ1 T677I	with no effect
Protein fantom (Homo sapiens), Q68CZ1 T615P	decreasing interaction strength
Protein fantom (Homo sapiens), Q68CZ1 A229T	decreasing interaction strength
Protein fantom (Homo sapiens), Q68CZ1 A695P	decreasing interaction strength

Reference: IntAct's records for PubMed 19430481
